Paper PMC4288178, “CRISPR RNA binding and DNA target recognition by purified Cascade complexes from Escherichia coli”

How the values were obtained:
Cascade- (crRNA-free …) [1] = biological target: T1, Cascade- (crRNA-free Cse1-Cse2-Cas7-Cas5-Cas6e) (Escherichia coli (K12; expressed in …, UniProt Q46901;P76632;Q46899;Q46898;Q46897 1-502;1-160;1-363;1-224;1-199); test: EMSA; loaded with crRNA MS2; EMSA: 20 mM Tris-HCl pH 8, 20 mM NaCl, 10 nM 32P probe, 30 min at 30 or 37 C, 6% native PAGE; loading 10 min at 30 C with crRNA (0.5 uM in Fig 3). Kd values are printed only in Fig 5A (not in the material); conditions: protein: recombinant; tags: N-terminal 6His on Cse1 (CasA); copies: 1;2;6;1;1; label: DNA 5'-32P; guide + blunt duplex
T1 sequence 1: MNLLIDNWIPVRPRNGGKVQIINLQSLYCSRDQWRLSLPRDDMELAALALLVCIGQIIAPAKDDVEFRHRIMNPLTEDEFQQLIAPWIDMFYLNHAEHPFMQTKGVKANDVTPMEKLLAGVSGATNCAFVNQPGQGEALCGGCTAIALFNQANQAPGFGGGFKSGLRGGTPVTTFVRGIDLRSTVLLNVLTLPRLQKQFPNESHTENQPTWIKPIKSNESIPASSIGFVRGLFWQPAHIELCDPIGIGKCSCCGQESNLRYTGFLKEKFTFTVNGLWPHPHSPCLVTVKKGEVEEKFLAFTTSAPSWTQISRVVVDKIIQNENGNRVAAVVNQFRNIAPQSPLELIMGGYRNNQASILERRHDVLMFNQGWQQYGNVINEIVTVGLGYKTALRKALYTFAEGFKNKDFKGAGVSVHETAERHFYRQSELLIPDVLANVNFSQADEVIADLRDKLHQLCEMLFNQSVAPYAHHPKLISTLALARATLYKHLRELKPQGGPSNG
T1 sequence 2: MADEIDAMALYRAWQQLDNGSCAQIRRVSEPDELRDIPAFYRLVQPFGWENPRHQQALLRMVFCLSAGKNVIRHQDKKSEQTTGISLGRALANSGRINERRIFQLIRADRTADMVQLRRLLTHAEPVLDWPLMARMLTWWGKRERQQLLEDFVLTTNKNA
T1 sequence 3: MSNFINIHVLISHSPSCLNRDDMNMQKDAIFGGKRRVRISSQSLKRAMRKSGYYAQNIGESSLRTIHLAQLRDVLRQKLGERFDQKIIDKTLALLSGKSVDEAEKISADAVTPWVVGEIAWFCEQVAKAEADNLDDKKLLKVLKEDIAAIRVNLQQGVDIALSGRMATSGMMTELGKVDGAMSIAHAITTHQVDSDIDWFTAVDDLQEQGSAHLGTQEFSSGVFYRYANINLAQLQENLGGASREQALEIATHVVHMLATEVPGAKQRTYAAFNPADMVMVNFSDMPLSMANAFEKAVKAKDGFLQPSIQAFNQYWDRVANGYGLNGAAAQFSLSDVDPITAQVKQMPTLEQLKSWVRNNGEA
T1 sequence 4: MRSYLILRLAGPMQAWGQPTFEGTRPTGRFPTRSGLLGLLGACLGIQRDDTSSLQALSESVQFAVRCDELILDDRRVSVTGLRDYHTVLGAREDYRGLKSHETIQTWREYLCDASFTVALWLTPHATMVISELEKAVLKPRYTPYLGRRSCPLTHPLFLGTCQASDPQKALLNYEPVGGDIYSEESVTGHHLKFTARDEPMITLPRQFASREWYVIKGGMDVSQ
T1 sequence 5: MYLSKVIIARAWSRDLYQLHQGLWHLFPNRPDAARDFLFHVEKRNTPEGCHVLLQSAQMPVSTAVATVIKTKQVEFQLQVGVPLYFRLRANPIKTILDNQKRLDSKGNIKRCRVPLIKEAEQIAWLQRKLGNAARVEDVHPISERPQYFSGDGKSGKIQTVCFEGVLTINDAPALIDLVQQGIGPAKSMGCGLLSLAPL

Cascade- (crRNA-free …) [2] = biological target: T1, Cascade- (crRNA-free …); test: EMSA; loaded with crRNA1; EMSA: 20 mM Tris-HCl pH 8, 20 mM NaCl, 10 nM 32P probe, 30 min at 30 or 37 C, 6% native PAGE; loading 10 min at 30 C with crRNA (0.5 uM in Fig 3). Kd values are printed only in Fig 5A (not in the material); conditions: protein: recombinant, tags: N-terminal 6His on Cse1 (CasA), copies: 1;2;6;1;1, label: DNA 5'-32P
[3] = biological target: T2, Cascade+ (Cascade co-expressed with g8 crRNA) (Escherichia coli (K12; expressed in …, UniProt Q46901;P76632;Q46899;Q46898;Q46897 1-502;1-160;1-363;1-224;1-199); test: EMSA; EMSA: 20 mM Tris-HCl pH 8, 20 mM NaCl, 10 nM 32P probe, 30 min at 30 or 37 C, 6% native PAGE; loading 10 min at 30 C with crRNA (0.5 uM in Fig 3). Kd values are printed only in Fig 5A (not in the material); conditions: protein: recombinant; tags: N-terminal 6His on Cse1 (CasA); copies: 1;2;6;1;1; label: DNA 5'-32P; guide + target strand
T2 sequence 1: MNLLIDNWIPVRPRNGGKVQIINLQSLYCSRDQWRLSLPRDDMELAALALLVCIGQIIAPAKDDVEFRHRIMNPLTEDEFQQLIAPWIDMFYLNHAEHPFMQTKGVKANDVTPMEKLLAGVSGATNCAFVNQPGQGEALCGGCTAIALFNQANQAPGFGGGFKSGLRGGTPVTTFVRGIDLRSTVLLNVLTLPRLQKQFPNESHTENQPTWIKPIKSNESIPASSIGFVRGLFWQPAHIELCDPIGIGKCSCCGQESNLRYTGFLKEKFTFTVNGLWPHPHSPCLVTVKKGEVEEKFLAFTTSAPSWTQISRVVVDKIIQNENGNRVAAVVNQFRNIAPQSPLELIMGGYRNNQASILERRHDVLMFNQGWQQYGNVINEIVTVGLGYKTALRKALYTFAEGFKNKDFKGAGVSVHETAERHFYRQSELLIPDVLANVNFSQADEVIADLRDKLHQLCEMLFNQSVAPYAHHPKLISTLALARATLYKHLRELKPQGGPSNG
T2 sequence 2: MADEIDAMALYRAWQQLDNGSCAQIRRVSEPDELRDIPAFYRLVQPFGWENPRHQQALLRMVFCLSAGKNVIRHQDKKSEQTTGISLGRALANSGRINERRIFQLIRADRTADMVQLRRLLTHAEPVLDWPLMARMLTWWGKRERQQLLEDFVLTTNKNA
T2 sequence 3: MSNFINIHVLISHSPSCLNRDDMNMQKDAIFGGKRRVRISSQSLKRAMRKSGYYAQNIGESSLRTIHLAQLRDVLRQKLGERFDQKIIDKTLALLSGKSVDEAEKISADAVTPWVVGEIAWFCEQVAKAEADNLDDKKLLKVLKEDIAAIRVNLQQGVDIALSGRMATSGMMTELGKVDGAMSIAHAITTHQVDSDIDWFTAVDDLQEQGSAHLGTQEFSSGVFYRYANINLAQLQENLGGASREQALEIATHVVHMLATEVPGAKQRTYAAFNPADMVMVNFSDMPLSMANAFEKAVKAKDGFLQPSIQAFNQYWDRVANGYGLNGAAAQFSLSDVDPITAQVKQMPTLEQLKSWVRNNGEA
T2 sequence 4: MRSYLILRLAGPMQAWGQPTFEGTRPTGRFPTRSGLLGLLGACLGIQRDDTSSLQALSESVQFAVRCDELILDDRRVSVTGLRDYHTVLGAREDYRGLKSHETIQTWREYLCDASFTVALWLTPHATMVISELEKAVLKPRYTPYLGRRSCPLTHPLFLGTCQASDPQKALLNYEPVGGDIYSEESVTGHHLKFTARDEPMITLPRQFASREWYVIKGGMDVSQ
T2 sequence 5: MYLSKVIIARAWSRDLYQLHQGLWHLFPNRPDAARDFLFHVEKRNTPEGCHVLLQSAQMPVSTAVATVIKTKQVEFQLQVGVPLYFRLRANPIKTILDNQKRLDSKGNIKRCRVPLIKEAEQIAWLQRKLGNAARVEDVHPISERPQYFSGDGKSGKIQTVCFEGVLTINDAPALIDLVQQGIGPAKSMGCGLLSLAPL

[4] = biological target: T2, Cascade+ (Cascade co-expressed with g8 …); test: EMSA; co-expressed crRNA; EMSA: 20 mM Tris-HCl pH 8, 20 mM NaCl, 10 nM 32P probe, 30 min at 30 or 37 C, 6% native PAGE; loading 10 min at 30 C with crRNA (0.5 uM in Fig 3). Kd values are printed only in Fig 5A (not in the material); conditions: protein: recombinant; tags: N-terminal 6His on Cse1 (CasA); copies: 1;2;6;1;1; label: DNA 5'-32P; guide + blunt duplex
[5] = biological target: T2, Cascade+ (Cascade co-expressed with g8 …); test: EMSA; co-expressed g8 crRNA; EMSA: 20 mM Tris-HCl pH 8, 20 mM NaCl, 10 nM 32P probe, 30 min at 30 or 37 C, 6% native PAGE; loading 10 min at 30 C with crRNA (0.5 uM in Fig 3). Kd values are printed only in Fig 5A (not in the material); conditions: protein: recombinant; tags: N-terminal 6His on Cse1 (CasA); copies: 1;2;6;1;1; label: 5'-32P; 3' handle hairpin
Cascade- (crRNA-free …) [6] = biological target: T1, Cascade- (crRNA-free …); test: EMSA; EMSA: 20 mM Tris-HCl pH 8, 20 mM NaCl, 10 nM 32P probe, 30 min at 30 or 37 C, 6% native PAGE; loading 10 min at 30 C with crRNA (0.5 uM in Fig 3). Kd values are printed only in Fig 5A (not in the material); conditions: protein: recombinant; tags: N-terminal 6His on Cse1 (CasA); copies: 1;2;6;1;1; label: 5'-32P; 3' handle hairpin

B1: crRNA MS2 + MS2 dsDNA (mixed)
RNA: AUAAACCGGCACCGACCCCUUUCUGGAGGUACAUAUUCAUGAGUUCCCCGCGCCAGCGGGG
DNA 1: TGAGCCGGCGTCTGATAAAGGCACCGACCCCTTTCTGGAGGTACATATTCATATCAGGCTCCTTACAGGCAG
DNA 2: CTGCCTGTAAGGAGCCTGATATGAATATGTACCTCCAGAAAGGGGTCGGTGCCTTTATCAGACGCCGGCTCA
Does B1 bind (Cascade- (crRNA-free …) [1])?
Result: binds

B2: g8 crRNA + g8 ssDNA (mixed)
RNA: AUAAACCGCUGUCUUUCGCUGCUGAGGGUGACGAUCCGCCGAGUUCCCCGCGCCAGCGGGG
DNA: CAGGGAGTTAAAGGCCGCTTTTGCGGGATCGTCACCCTCAGCAGCGAAAGACAGCATCGGAACGAGGGTAGCAACGGCT
Does B2 bind (Cascade- (crRNA-free …) [2]; guide + target strand)?
Result: binds

Does B2 bind [3]?
Result: binds

B3: g8 crRNA1 + g8 dsDNA (mixed)
RNA: AUAAACCGCUGUCUUUCGCUGCUGAGGGUGACGAUCCGCCGAGUUCCCCGCGCCAGCGGGG
DNA 1: CAGGGAGTTAAAGGCCGCTTTTGCGGGATCGTCACCCTCAGCAGCGAAAGACAGCATCGGAACGAGGGTAGCAACGGCT
DNA 2: AGCCGTTGCTACCCTCGTTCCGATGCTGTCTTTCGCTGCTGAGGGTGACGATCCCGCAAAAGCGGCCTTTAACTCCCTG
modifications: 2',3'-cyclic phosphate on crRNA
Does B3 bind [4]?
Result: binds

Does B3 bind (Cascade- (crRNA-free …) [2]; guide + blunt duplex)?
Result: binds

B4: crRNA1 (-8/+21) (structured_RNA)
RNA: AUAAACCGCUGUCUUUCGCUGCUGAGGGUGACGAUCCGCCGAGUUCCCCGCGCCAGCGGGG
modifications: 2',3'-cyclic phosphate at 3' end
Does B4 bind [5]?
Result: binds

Does B4 bind (Cascade- (crRNA-free …) [6])?
Result: binds
